Test results as given in US20230363418A1, “COMPOSITION FOR PREVENTING OR TREATING NEUROPSYCHOLOGIC DISEASE, COMPRISING MANF” (CEFO CO., LTD., priority 2020, published 2023).

Assays:
[1] = test system: IBO-administered memory impairment and autism model; experiment: Passive avoidance test; format: in vivo, rat; conditions: MANF-AAV-hMSC transplanted into the hippocampus of IBO rats
Protocol: Memory impairment and autism models were prepared by administering IBO to the entorhinal cortex of the rats, wherein the IBO destroys granule cells of the dentate gyrus (DG) and pyramidal cells of the hippocampus, which receive nerve signals input from the entorhinal cortex. Specifically, the rats were anesthetized with equitensin (10% ethanol containing 350 mM pentobarbital sodium, 250 mM chloral hydrate, 85 mM MgSO and 40% propylene glycol). The incisor bar of a stereotaxic device (Stoelting Co., U.S.A.) was placed 3.4 mm below the interaural line, and the injection needle angle was fixed at […] right from the center of the sagittal plane. 1.5 ul of IBO (1 mg/ml) was injected into the entorhinal cortex of the rat using the stereotaxic device. The IBO was injected into three locations of first, AP: -8.4, ML: -4.8, DV: -4.6; Second, AP; -8.4, ML: -4.8, DV: […]; Third, AP: -8.8, ML: - 3.65, DV: -3.4 (FIG. 7). […]
It was performed according to the method described in Heo Het al. (2009) for the same number of rats as in each group of Example 6-1. […] Exactly 24 hours after the adaptation training, the rats were placed in the bright room again, and the latency time to enter the dark room was measured for 720 seconds (confinement experiment).

[2] = test system: hippocampus of IBO-administered memory impairment and autism model; experiment: Immunohistochemical analysis of brain tissue (BrdU, SOX2, DCX, NeuN, GAD67, CNPase); format: in vivo, rat; conditions: brain tissue after behavioral experiment
Protocol: The brain tissue stored in the same method as the immunostaining of Example 9-1 was washed twice with PBS, permeated in 0.5% Triton X-100 for 20 minutes, and cultured in 2N HCl at 37° C. for 30 minutes. Thereafter, blocking was performed in 15% standard serum, 3% bovine serum albumin (bio-WORLD, Dublin, OH, USA) and 0.1% Triton X-100 in a free-floating state for 2 hours. The tissue was doubly stained at 4° C. for 16 hours using BrdU (abcam, 1:700) antibody, SOX2 (R&D system, MAB2018, 1:2000), DCX (Santacruz, sc8066, 1:1000), NeuN (Millipore, MAB377B, 1:700), CNPase (Abcam, ab6319, 1:700), vGluT1 (Millipore, MAB5502, 1:700), GAD67 (Millipore, MAB5406, 1:2000) as primary antibodies. As secondary antibodies, mo-Alexa 488 (Invitrogen, A21202, 1:700), mo-Cy3 (Jackson lab, 715-165-151, 1:500), rb-Alexa 488 (Jackson lab, 711-546-152, 1:700), rat-Alexa 488 (Abcam, ab6326, 1:700), etc. were used. Immunostained tissues were scanned with a confocal microscope (LSM510, LSM800 Carl Zeiss, Oberkochen, Germany).
The number of differentiation markers in the hippocampus of each experimental animal was shown by counting the number of DAPI-labeled cells in the double and triple photographed slides and counting the number of each cells labeled by fluorescently labeling each differentiation marker, NeuN, CNPase, GAD and vGluT1. Here was counted the number of cells labeled with the secondary antibody that is precisely matched in shape and location and has the shape of a cell.

[3] = test system: proliferating neural progenitor cells; experiment: Immunoblotting of Sox2 and DCX in proliferating neural progenitor cells; format: cell-based, rat; conditions: MANF 20 ng/ml, proliferation condition
Protocol: Specifically, hippocampal-derived neural stem cells were isolated from the brain of E16 rat embryos. Hippocampal ridges were minced from the embryonic forebrains of E16 rats using sterile fine tweezers under a dissecting microscope. The tissues were collected, mechanically separated using a pipette in Ca^2+/Mg^2+-freeHBSS (Invitrogen) solution, and planted at 19,000 cells/cm^2 in 35 mm culture dishes precoated with 15 µg/ml poly-L-ornithine and 1 µg/ml fibronectin (Sigma). The cells were cultured under the condition of 5% CO2 for 3 days using a serum-free N2 medium (medium for proliferation) supplemented with 10 ng/mL basic fibroblast growth factor(bFGF, Invitrogen). Thereafter, the cells were removed using 0.05% trypsin/EDTA (ethylene-diamine-tetraacetic acid), and neural progenitor cells were planted on a 12 mm glass coverglass (Belco) for immunostaining and on a 100 mm dish for immunoblotting and cultured in N2 medium for proliferation containing bFGF for 1 day. Thereafter, in the proliferation condition, the medium continuously containing bFGF was treated with MANF at the indicated concentration and cultured for 2-3 days; and in the differentiation condition, MANF was added to the medium for differentiation not containing bFGF, which was cultured for 3-7 days. In the control group (vehicle), physiological saline was added in the same volume instead of MANF.

[4] = test system: IBO-administered memory impairment and autism model; experiment: Open space behavior test (anxiety behavior); format: in vivo, rat
Protocol: Memory impairment and autism models were prepared by administering IBO to the entorhinal cortex of the rats, wherein the IBO destroys granule cells of the dentate gyrus (DG) and pyramidal cells of the hippocampus, which receive nerve signals input from the entorhinal cortex. Specifically, the rats were anesthetized with equitensin (10% ethanol containing 350 mM pentobarbital sodium, 250 mM chloral hydrate, 85 mM MgSO and 40% propylene glycol). The incisor bar of a stereotaxic device (Stoelting Co., U.S.A.) was placed 3.4 mm below the interaural line, and the injection needle angle was fixed at […] right from the center of the sagittal plane. 1.5 ul of IBO (1 mg/ml) was injected into the entorhinal cortex of the rat using the stereotaxic device. The IBO was injected into three locations of first, AP: -8.4, ML: -4.8, DV: -4.6; Second, AP; -8.4, ML: -4.8, DV: […]; Third, AP: -8.8, ML: - 3.65, DV: -3.4 (FIG. 7).
After 2-3 IBO injections, each group was randomly classified into an IBO-administrated group (negative control group), and a GFP-AAV-hMSC-administrated group (GFP-AAV) and a MANF-AAV-hMSC-administrated group […] as a control group. A rest period of one week was provided. […]

B1: MANF: one of 16 or more growth factors secreted into nerve stem cells by cerebrovascular cells; amino acid sequence of SEQ ID NO: 1 (protein)
chain: MRRMWATQGLAVALALSVLPGSRALRPGDCEVCISYLGRFYQDLKDRDVTFSPATIENELIKFCREARGKENRLCYYIGATDDAATKIINEVSKPLAHHIPVEKICEKLKKKDSQICELKYDKQIDLSTVDLKKLRVKELKKILDDWGETCKGCAEKSDYIRKINELMPKYAPKAASARTDL
modifications: MANF
**Q.** How did the “memory ability in passive avoidance test” value [1] turn out when B1 was run?
**A.** memory improvement

**Q.** And the “differentiation of newly proliferated (BrdU stained) neural progenitor cells into GABAergic nerve cells (GAD)” value [2]?
**A.** increased

**Q.** And the “differentiation of newly proliferated (BrdU stained) neural progenitor cells into mature nerve cells (NeuN)” value [2]?
**A.** increased

**Q.** What about the “differentiation of newly proliferated (BrdU stained) neural progenitor cells into oligodendrocytes (CNPase)” value [2] of the same molecule?
**A.** increased

**Q.** And the “migration (DCX) of neural stem cells (Sox2+)” value ([2]; MANF-AAV-hMSC transplanted)?
**A.** promoted

**Q.** And the “proliferation (BrdU+, Ki67) of neural stem cells (Sox2+)” value ([2]; MANF-AAV-hMSC transplanted)?
**A.** promoted

**Q.** And the DCX immunoblot [3]?
**A.** significantly increased

**Q.** And the Sox2 immunoblot [3]?
**A.** significantly increased

**Q.** And the “time in the center” value ([4]; compared to the IBO group)?
**A.** significantly increased

**Q.** And the “time in the center” value ([4]; compared to the MSC group)?
**A.** also increased
